Each block holds one binder with its values, some of them ahead of it.
Key:
[1] = biological target: T1, amyloid beta peptide (Aβ) (UniProt P05067 672-713); test: ELISA on plates coated with Aβ42 peptide, detection with anti-FLAG M2 HRP ('Ab9 scFv activity, Aβ42 ELISA')
T1 construct: also called Aβ9; Aβ9 ligand
Description: An ELISA-based assay was performed to assess Aβ9 scFv activity. 96-well plates were coated with Aβ42 peptide, and 293T conditioned media (containing the GBA-CCD and GBA-CCD-Aβ9 scFv proteins) and cell lysate were then added and incubated for 6 hours. ELISA was developed with anti-FLAG M2 HRP. (See FIG. 23.)

acidic FGF = biological target: T2, acidic FGF (UniProt P05230 16-155, limits assumed); test: SPR, FGFR1-CCD injected over immobilized ligand
T2 construct: also called acidic FGF ligand
Description: Using a surface plasmon resonance (SPR) technique, the binding kinetics of FGFR1 was measured with two ligands, basic FGF and acidic FGF. A null FGFR1 ligand, vascular endothelial growth factor A (VEGFA), was used as a control. In SPR experiments, the binding of a molecule in the soluble phase (e.g. the peptide of the fusion protein) to a ligand molecule immobilized on a sensor surface is directly measured as a reflected light signal (SPR signal) in a biosensor device. The sensor device may contain an LED-emitting near infrared light, a glass prism fixed to a sensor microchip, and a position-sensitive diode array detector. Binding events cause changes in the refractive index at the surface layer, which are detected as changes in the SPR signal. Specifically, a signal arises when incident LED light is totally internally reflected from the metal-coated interface between two media of different refractive indices (the glass prism and solution). When the incident light is focused on the surface in a wedge, the drop in intensity at the resonance angle appears as a “shadow” in the reflected light wedge, which is detected by the detector. […]
This sensorgram consists of two phases: (Left) In the association phase, the FGFR1-CCD was injected over immobilized ligands on the surface. […] Binding kinetics, including the value of KD, the dissociation constant, can be calculated from the sensorgram.

T1 sequence (P05067 672-713): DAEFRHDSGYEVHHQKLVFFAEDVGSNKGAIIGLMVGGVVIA
T2 sequence (P05230 16-155 limits assumed): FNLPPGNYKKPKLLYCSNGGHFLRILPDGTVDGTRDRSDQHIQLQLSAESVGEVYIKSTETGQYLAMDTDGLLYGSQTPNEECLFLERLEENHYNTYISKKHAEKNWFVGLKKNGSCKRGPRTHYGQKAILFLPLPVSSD

binding result [1]: binds
B1: GBA_AB9 (scFv)
fusion protein monomer: ARPCIPKSFGYSSVVCVCNATYCDSFDPPTFPALGTFSRYESTRSGRRMELSMGPIQANHTGTGLLLTLQPEQKFQKVKGFGGAMTDAAALNILALSPPAQNLLLKSYFSEEGIGYNIIRVPMASCDFSIRTYTYADTPDDFQLHNFSLPEEDTKLKIPLIHRALQLAQRPVSLLASPWTSPTWLKTNGAVNGKGSLKGQPGDIYHQTWARYFVKFLDAYAEHKLQFWAVTAENEPSAGLLSGYPFQCLGFTPEHQRDFIARDLGPTLANSTHHNVRLLMLDDQRLLLPHWAKVVLTDPEAAKYVHGIAVHWYLDFLAPAKATLGETHRLFPNTMLFASEACVGSKFWEQSVRLGSWDRGMQYSHSIITNLLYHVVGWTDWNLALNPEGGPNWVRNFVDSPIIVDITKDTFYKQPMFYHLGHFSKFIPEGSQRVGLVASQKNDLDAVALMHPDGSAVVVVLNRSSKDVPLTIKDPAVGFLETISPGYSIHTYLWRRQLKEFMGYQGPPGPPGPPGIPGNHGNNGNNGATGHEGAKGEKGDKGDLGPRGERGQHGPKGEKGYPGIPGYCGPPGPPGPPGIPGNHGNNGNNGATGHEGAKGEKGDKGDLGPRGERGQHGPKGEKGYPGIPDYKDDDDKLQISGGGGSGGGGSQVTLKESGPGILQPSQTLSLTCSFSGFSLNTFGMGVSWIRQPSGKGLEWLAHIFWDDDKHYNPSLKSRLTISKDTSNNQVFLKITTVDTADTATYYCVRYGFDGFPYWGQGTLVTVSAGGGGSGGGGSGGGGSDVVMTQTPLSLPVSLGDQASISCRSNQSLVHSNGNTYLHWYLQKPGQSPKLLIYKVSNRFSGVPDRFSGSGSGTDFTLKISRVEAEDLGFYFCSQSTRVPWTFGGGTKLELKRAAAHHHHHHV
notes: fusion of glucocerebrosidase, CCD and Aβ9 scFv; tested as conditioned media and as protein purified from media and lysate; also called hGBA-CCD-Aβ9 scFv; GBA-CCD-antiAβ9 scFv fusion protein

Kd (acidic FGF): < 1 pM
B2: FGFR1-CCD fusion protein (receptor)
chain: RPSPTLPEQAQPWGAPVEVESFLVHPGDLLQLRCRLRDDVQSINWLRDGVQLAESNRTRITGEEVEVQDSVPADSGLYACVTSSPSGSDTTYFSVNVSDALPSSEDDDDDDDSSSEEKETDNTKPNPVAPYWTSPEKMEKKLHAVPAAKTVKFKCPSSGTPNPTLRWLKNGKEFKPDHRIGGYKVRYATGSIIMDSVVPSDKGNYTCIVENEYGSINHTYQLDVVERSPHRPILQAGLPANKTVALGSNVEFMCKVYSDPQPHIQWLKHIEVNGSKIGPDNLPYVQILKTAGVNTTDKEMEVLHLRNVSFEDAGEYTCLAGNSIGLSHHSAWLTVLEALEERPAVMLKEFMGYQGPPGPPGPPGIPGNHGNNGNNGATGHEGAKGEKGDKGDLGPRGERGQHGPKGEKGYPGIPGYCGPPGPPGPPGIPGNHGNNGNNGATGHEGAKGEKGDKGDLGPRGERGQHGPKGEKGYPGIPDYKDDDDKLQISSTVAAAHHHHHHV
notes: CCD fusions are said to form multimers (trimers, hexamers); It was expressed in cells, isolated and purified; also called Fibroblast growth factor receptor 1 (hsFGFR1) CCD fusion

From patent publication US20220324943A1 (UNIVERSITY OF FLORIDA RESEARCH FOUNDATION, published 2022)
